Experimental findings from patent US20180147231A1, “METHOD FOR TREATMENT AND PROGNOSIS OF COLORECTAL CANCER” (Oxford University Innovation Limited, priority 2015, published 2018) are described below.

Test [1] concerns SOCS3 expression in CRC lines (Colo205, LS103, SW948, T84, SW480, HCT116). Kind of test: qPCR of SOCS3 after IL-22 stimulation of CRC cell lines. The format is cell-based, human. Conditions: 24 h stimulation with IL-22, n=3. An excerpt: (A) qPCR analysis of IL22RA1 expression level on 3 KRAS-WT (Colo205, LS103, SW948) and 3 KRAS-mutant (T84, SW480, HCT116) CRC cell lines. n=3 *p<0.05, **p<0.01, one-way ANOVA with Tukey's post test for multiple comparisons. (B) Representative FACS plots of IL-22RA1 expression on the Colo205 (KRAS-WT, IL-22RA1^high), T84 (KRAS-Mut, IL-22RA1^high), and SW480 (KRAS-mutant, IL-22RA1^low) lines. (C) Western blot analysis of activation of STAT3, ERK, and Akt signaling pathways in 6 CRC lines following 24 h stimulation with 1 ng/mL IL-22, 10 ng/mL IL-22, and 1 ng/mL IL-6. 1 blot representative of 3 independent experiments.
Colo205, LS1034, SW948, SW480, T84, and HCT116 (ATCC) colorectal cancer cell (CRC) lines were a generous gift from Dr. Simon Leedham and were confirmed to be mycoplasma free. X-MAN DLD-1 isogenic cells were purchased from Horizon Discovery. […]
RNA was extracted from cultured monolayers of CRC lines, suspensions of LIM1863 spheroids, and CRC line derived spheres using the RNeasy Mini Kit (Qiagen) according to the manufacturers protocol. cDNA was synthesized using the High-Capacity cDNA Reverse Transcription Kit (Applied Biosystems). Gene expression was analyzed using Taqman® Gene Expression Assays (Applied Biosystems) and run with Precision 2× Master Mix (Primerdesign) in 384 well plates using the ViiA7 Real-Time PCR System (Applied Biosystems). […]
For orientation: Real-time PCR tracks product formation cycle by cycle.

Test [2] concerns DLD-1 KRAS WT cells (mutant KRAS allele knocked out). Nature of the test: Phosflow analysis of intracellular signaling, DLD-1 KRAS WT. The format is cell-based. The following applies: 30 min 10 ng/mL recombinant human IL-22. The protocol: Therefore this isogenic pair differs only in KRAS mutation status and allows a clean system for comparison of KRAS-dependent IL-22 effects without inter-cell line mutational heterogeneity. (A) Representative FACS plots of IL-22RA1 expression and quantification of mean fluorescence intensity (WI) showing similar IL-22RA1 expression in the isogenic pair (4 experimental replicates). […] MTT was added 2 h prior to end of 48 h incubation. Formazan particles were dissolved in DMSO and absorbance was measured at 540 nm. Raw absorbances are blank corrected, normalized to a no treatment, and represented as a % viability compared to the no treatment condition. n=5 independent experiments with 3 experimental replicates. p values computed by non-parametric Mann-Whitney test comparing 5 FU alone to IL-22 pretreatment with 5 FU for each DLD-1 line.
Adherent Colo205, T84, SW480, and DLD-1 cells were dissociated using StemPro® Accutase® (Life Technologies), filtered through […] filters, and counted by Trypan Blue exclusion. 5×10^5 cells of each line were stained with 5 μL Human IL-22 R alpha 1 Phycoerythrin MAb (Clone 305405) (R&D Systems) or […] isotype rat anti-mouse IgG1 PE (BD Biosciences) and incubated for 30 minutes at room temperature. Cells were washed with PBS, 0.1% BSA, 2 mM EDTA and acquired on the BD LSRII. Analysis was performed using FlowJo (Tree Star) software. […]

B1: IL-22: recombinant human IL-22 (R&D Systems), IL-10 superfamily cytokine; human sequence SEQ ID NO: 5 (protein, listed as Homo sapiens)
chain: MAALQKSVSSFLMGTLATSCLLLLALLVQGGAAAPISSHCRLDKSNFQQPYITNRTFMLAKEASLADNNTDVRLIGEKLFHGVSMSERCYLMKQVLNFTLEEVLFPQSDRFQPYMQEVVPFLARLSNRLSTCHIEGDDLHIQRNVQKLKDTVKKLGESGEIKAIGELDLLFMSLRNACI
For the molecule B1, in test [1], the “SOCS3 expression (confirmation of active downstream IL-22 signaling)” value is recorded as “upregulation of SOCS3”. Further, in test [2], the “Phosphorylated ERK1/2” value was “not IL-22 inducible” and the “Phosphorylated STAT3” value is “identical extent of phosphorylated STAT3”.
